Test results from publication PMC3052743.

Target: T1, full-length gp130 with a C-terminal EYMPME (Glu-Glu) epitope tag, P40189
T1 chain: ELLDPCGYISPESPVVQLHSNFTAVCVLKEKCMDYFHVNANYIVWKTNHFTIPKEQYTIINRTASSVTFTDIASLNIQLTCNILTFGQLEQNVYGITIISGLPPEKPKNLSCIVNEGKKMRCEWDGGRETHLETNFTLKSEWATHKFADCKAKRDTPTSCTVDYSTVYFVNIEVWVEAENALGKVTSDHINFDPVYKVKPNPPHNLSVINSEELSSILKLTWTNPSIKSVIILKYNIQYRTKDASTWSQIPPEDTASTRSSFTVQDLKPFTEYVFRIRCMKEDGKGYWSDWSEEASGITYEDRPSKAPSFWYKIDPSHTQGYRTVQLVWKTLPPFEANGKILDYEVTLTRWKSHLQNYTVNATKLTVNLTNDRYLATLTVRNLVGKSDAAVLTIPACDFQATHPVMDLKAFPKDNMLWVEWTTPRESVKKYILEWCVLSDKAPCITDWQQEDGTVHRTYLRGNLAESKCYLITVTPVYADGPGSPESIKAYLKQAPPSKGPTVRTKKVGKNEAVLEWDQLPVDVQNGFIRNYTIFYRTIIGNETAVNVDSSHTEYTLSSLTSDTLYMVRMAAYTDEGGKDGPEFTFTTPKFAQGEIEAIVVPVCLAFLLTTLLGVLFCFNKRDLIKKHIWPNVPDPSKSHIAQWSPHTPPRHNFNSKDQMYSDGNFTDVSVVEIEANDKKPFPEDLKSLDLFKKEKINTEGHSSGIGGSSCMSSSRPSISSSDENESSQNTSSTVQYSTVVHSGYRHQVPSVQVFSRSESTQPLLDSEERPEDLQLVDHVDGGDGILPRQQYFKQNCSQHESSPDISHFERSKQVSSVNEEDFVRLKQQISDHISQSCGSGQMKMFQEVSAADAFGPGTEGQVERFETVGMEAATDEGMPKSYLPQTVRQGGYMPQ
Assay: SEC
Settings: remark: other sources report otherwise

stoichiometry N: 2
B1: full-length gp130 with a C-terminal EYMPME (Glu-Glu) epitope tag, P40189 23-918 (receptor)
chain: T1 chain
